From patent US20090188010A1 (HEXIMA, published 2009) come the findings set out here.

The assay addresses T1, NaPI-insensitive chymotrypsin from H. punctigera (HpCh5), native enzyme from the larval gut (Helicoverpa punctigera).
T1 construct: also called NaPI-insensitive protease; Rech1a
As to the kind of experiment: affinity column of immobilized recombinant C1, trypsin-depleted gut extract passed through. The procedure: The midgut was dissected from 80 fourth instar larvae and buffer soluble extracts were prepared. The gut extract was depleted of trypsins by repeated passage through a benzamidine-Sepharose affinity column. […] This column was expected to specifically bind NaPI-sensitive chymotrysins.
The filtered gut extract was passed through the benzamidine column five times to remove the trypsins.

T1 sequence (chain, as listed by the source limits assumed): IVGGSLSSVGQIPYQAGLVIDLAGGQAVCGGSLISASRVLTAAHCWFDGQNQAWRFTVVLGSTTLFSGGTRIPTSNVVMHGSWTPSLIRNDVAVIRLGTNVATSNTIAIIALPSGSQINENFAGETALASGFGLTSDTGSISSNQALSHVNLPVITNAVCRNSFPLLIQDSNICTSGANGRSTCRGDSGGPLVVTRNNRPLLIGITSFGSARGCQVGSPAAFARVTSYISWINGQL

B1: recombinant C1 inhibitor with N-terminal hexahistidine tag, expressed in E. coli (other)
chain: DRICTNCCAGTKGCKYFSDDGTFVCEGESDPRNPKACTLNCDPRIAYGVCPRSEEKKN
notes: also called 6H.C1; not shown: hexahistidine tag at the N-terminus from the pQE-30 vector
Regarding B1, the binding result is “no binding”.
